Target: H3(1-53) peptide

B1: protein lysine N-methyltransferase (histone H3 lysine-9 specific) from Neurospora crassa (NcDIM-5) (protein)
chain: IRSFATHAQLPISIVNREDDAFLNPNFRFIDHSIIGKNVPVADQSFRVGCSCASDEECMYSTCQCLDEMAPDSDEEADPYTRKKRFAYYSQGAKKGLLRDRVLQSQEPIYECHQGCACSKDCPNRVVERGRTVPLQIFRTKDRGWGVKCPVNIKRGQFVDRYLGEIITSEEADRRRAESTIARRKDVYLFALDKFSDPDSLDPLLAGQPLEVDGEYMSGPTRFINHSCDPNMAIFARVGDHADKHIHDLALFAIKDIPKGTELTFDYVNGLTGLESDAHDPSKISEMTKCLCGTAKCRGYLW
- Km for peptide H3(1-53), TM0936-coupled methyltransferase assay (absorbance 263 nm), SAM saturating, 7.6 nM NcDIM-5, glycine buffer pH 9.50: 0.9 µM

— US20230220443
